Article PMC11960969, “Mdga2 deficiency leads to an aberrant activation of BDNF/TrkB signaling that underlies autism-relevant synaptic and behavioral changes in mice” (PLOS Biology, 2025)
One block for each molecule: values may come before it.

What was measured:
BDNF-TrkB interaction = assay: BDNF-TrkB Co-IP (anti-BDNF or anti-TrkB) in primary neurons / brain of Het, KO, WT and in WT neurons transfected with MDGA2 or ΔMAM; type: cell-based, mouse; settings: IP anti-BDNF, Fig 3I
Description: (§1) Fig 3 MDGA2 interacts with TrkB and suppresses TrkB activity. (A) Primary hippocampal neurons derived from Mdga2^ +/− (Het) mice and their wild-type (WT) littermates at DIV 7 were treated with different doses of BDNF for 30 min. Equal amounts of protein lysates were subjected to immunoprecipitation (IP) with an anti-TrkB antibody, followed by immunoblotting with an anti-phosphotyrosine (pTyr) antibody or the anti-TrkB antibody. The pTyr levels were quantified by densitometry, normalized to total TrkB levels, and then compared to those of WT controls. n = 3 per group. (B) WT mouse brain lysates were subjected to IP with an anti-MDGA2 antibody and a control IgG, and immunoblotted (IB) for the components indicated. mBDNF, mature BDNF; ImBDNF, immature BDNF. […] Immunoprecipitated TrkB levels were quantified by densitometry, normalized to input levels, and compared to respective controls (set to one arbitrary units). n = 3 per group. […] Levels of phosphorylated proteins were quantified by densitometry, normalized to respective total protein levels and compared to controls (set to one arbitrary units). n = 6 per group. […] P-values were determined by two-tailed unpaired Student t-test in (A) and one-way ANOVA with Tukey’s multiple comparisons test in (H, I, J). *p < 0.05, **p < 0.01, ***p < 0.001, ns: not significant. […]

TrkB (TrkB-VN) = assay: BiFC assay in HeLa cells (TrkB-VN with MDGA2-VC or ΔMAM-VC); type: cell-based, human; settings: 24 h, Venus fluorescence
Description: as §1

TrkB [1] = assay: Co-IP of endogenous MDGA2 and TrkB from WT mouse brain lysates; type: binding
recombinant TrkB protein = biological target: T1, recombinant TrkB protein (Homo sapiens, UniProt Q16620); assay: Surface plasmon resonance (Biacore CM5, immobilized TrkB); type: binding; settings: SPR, TrkB immobilized on Biacore CM5 chip, analyte at several concentrations, Biacore T100 Evaluation software
T1 construct: Full-length human TrkB or MDGA2 cDNA was cloned into the pcDNA6-His vector; His; made in house; host or cells: HEK293T cells
Description: as §1

[2] = test system: TrkB signaling (pTrkB, pAkt, pmTOR); assay: Immunoblotting of TrkB/Akt/mTOR phosphorylation in primary neurons transfected with MDGA2, ΔMAM or V930I; type: cell-based, mouse; settings: for pAkt level normalized to total protein / pTrkB level normalized to total protein / pmTOR level normalized to total protein: KO neurons transfected, WT/Ctrl set to one
Description: Fig 3 MDGA2 interacts with TrkB and suppresses TrkB activity. (A) Primary hippocampal neurons derived from Mdga2^ +/− (Het) mice and their wild-type (WT) littermates at DIV 7 were treated with different doses of BDNF for 30 min. Equal amounts of protein lysates were subjected to immunoprecipitation (IP) with an anti-TrkB antibody, followed by immunoblotting with an anti-phosphotyrosine (pTyr) antibody or the anti-TrkB antibody. The pTyr levels were quantified by densitometry, normalized to total TrkB levels, and then compared to those of WT controls. n = 3 per group. (B) WT mouse brain lysates were subjected to IP with an anti-MDGA2 antibody and a control IgG, and immunoblotted (IB) for the components indicated. mBDNF, mature BDNF; ImBDNF, immature BDNF. (C) Hippocampal neurons from WT mice at DIV 7 were immunostained with antibodies against MDGA2 (red) and TrkB (green), and then counter-stained with DAPI (blue). Images were acquired by a confocal microscope. Scale bar: 10 μm. (D) Surface plasmon resonance (SPR) analysis of the binding between recombinant MDGA2 protein and recombinant TrkB protein. TrkB was immobilized on a Biacore CM5 chip and tested for its binding with MDGA2 at the concentrations indicated. (E) Computer simulation of the binding mode of TrkB and MDGA2. The predicted binding domain of TrkB (the d5 domain) is highlighted by a red square and labeled in brown. The predicted binding domain of MDGA2 (the MAM domain) is highlighted by a red square and labeled in yellow. (F) HEK293T cells were co-transfected with TrkB-Flag and GFP-tagged full-length MDGA2 (MDGA2-GFP) or an MDGA2 deletion fragment lacking the entire MAM domain (ΔMAM-GFP). Cell lysates were subjected to IP with control IgG and antibodies against Flag or GFP, and immunoblotted for the components indicated. […] The scheme of MDGA2-ΔMAM is also shown. (G) HeLa cells were co-transfected with TrkB that is tagged with the N-terminal Venus fragment (TrkB-VN) and full-length MDGA2 or MDGA2-ΔMAM that are tagged with the C-terminal Venus fragment (MDGA2-VC or ΔMAM-VC) for 24 h. After immunostaining with antibodies against MDGA2/MDGA2-ΔMAM (pink) and TrkB (red), cells were observed by confocal microscopy. Venus signal (green) indicates the interaction between MDGA2 and TrkB. Schematic diagrams depicting the BiFC assay are also shown. Scale bars: 10 μm. (H, I) Equal amounts of protein lysates from primary neurons derived from Het, KO, and their WT littermate mice (H), and from WT primary neurons transfected with GFP control, MDGA2-GFP or ΔMAM-GFP (I) were subjected to IP with IgG and an anti-BDNF antibody, and then immunoblotted for the components indicated. Immunoprecipitated TrkB levels were quantified by densitometry, normalized to input levels, and compared to respective controls (set to one arbitrary units). n = 3 per group. (J) Neurons derived from KO mice were transfected with GFP control (Ctrl), MDGA2-GFP, or MDGA2-ΔMAM-GFP, and neurons derived from their WT littermates were transfected with GFP control (Ctrl). Equal amounts of protein lysates were subjected to immunoblotting for the proteins indicated. Levels of phosphorylated proteins were quantified by densitometry, normalized to respective total protein levels and compared to controls (set to one arbitrary units). n = 6 per group. Data represent mean ± SEM. P-values were determined by two-tailed unpaired Student t-test in (A) and one-way ANOVA with Tukey’s multiple comparisons test in (H, I, J). *p < 0.05, **p < 0.01, ***p < 0.001, ns: not significant. The data underlying this figure can be found in S1 Data, specifically in the sheet labeled “Figure 3”.
Fig 7 The autism spectrum disorder (ASD)-associated MDGA2 V930I mutation impairs the MDGA2-TrkB interaction and MDGA2’s inhibitory effect on the tyrosine kinase B (TrkB) signaling. (A) Schematic depiction of the WT human MDGA2 and its V930I mutation constructs that are tagged with GFP. […]

TrkB [3] = assay: BDNF-induced TrkB tyrosine phosphorylation in primary hippocampal neurons (IP anti-TrkB, immunoblot pTyr); type: cell-based, mouse; settings: primary hippocampal neurons DIV 7, 30 min; Mdga2+/- and Mdga2-/- vs WT neurons; Fig 3A, S3A
Description: as §1

ASD animal models = settings: cited from earlier work

T1 sequence (Q16620 32-822): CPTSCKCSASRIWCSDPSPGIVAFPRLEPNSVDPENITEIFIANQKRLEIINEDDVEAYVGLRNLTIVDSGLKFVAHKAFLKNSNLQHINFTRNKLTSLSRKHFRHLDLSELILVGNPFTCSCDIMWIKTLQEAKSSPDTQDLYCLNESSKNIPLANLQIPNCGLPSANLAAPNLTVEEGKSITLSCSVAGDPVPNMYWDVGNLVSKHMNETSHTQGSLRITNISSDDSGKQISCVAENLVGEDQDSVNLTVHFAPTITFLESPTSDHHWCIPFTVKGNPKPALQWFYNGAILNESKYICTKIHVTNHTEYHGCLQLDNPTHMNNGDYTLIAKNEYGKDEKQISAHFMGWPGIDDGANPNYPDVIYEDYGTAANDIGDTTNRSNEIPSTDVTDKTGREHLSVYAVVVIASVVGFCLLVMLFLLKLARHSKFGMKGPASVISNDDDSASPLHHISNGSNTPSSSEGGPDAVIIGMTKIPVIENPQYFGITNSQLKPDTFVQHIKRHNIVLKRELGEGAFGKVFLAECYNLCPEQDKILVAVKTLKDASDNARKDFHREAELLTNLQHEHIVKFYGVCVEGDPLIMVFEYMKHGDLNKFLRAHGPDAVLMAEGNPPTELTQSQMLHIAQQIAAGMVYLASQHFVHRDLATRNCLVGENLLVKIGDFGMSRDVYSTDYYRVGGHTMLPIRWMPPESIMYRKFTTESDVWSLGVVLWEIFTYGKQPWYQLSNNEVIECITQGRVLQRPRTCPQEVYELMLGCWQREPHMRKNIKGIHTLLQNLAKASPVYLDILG

Kd (recombinant TrkB protein): 24.4 nM
B1: MDGA2: MAM domain containing glycosylphosphatidylinositol anchor 2; full-length human, recombinant or transfected (protein, UniProt Q7Z553 1-956, looked up)
chain: MDLLYGLVWLLTVLLEGISGQGVYAPPTVRIVHSGLACNIEEERYSERVYTIREGETLELTCLVTGHPRPQIRWTKTAGSASDRFQDSSVFNETLRITNIQRHQGGRYYCKAENGLGSPAIKSIRVDVYYLDDPVVTVHQSIGEAKEQFYYERTVFLRCVANSNPPVRYSWRRGQEVLLQGSDKGVEIYEPFFTQGETKILKLKNLRPQDYANYSCIASVRNVCNIPDKMVSFRLSNKTASPSIKLLVDDPIVVNPGEAITLVCVTTGGEPAPSLTWVRSFGTLPEKTVLNGGTLTIPAITSDDAGTYSCIANNNVGNPAKKSTNIIVRALKKGRFWITPDPYHKDDNIQIGREVKISCQVEAVPSEELTFSWFKNGRPLRSSERMVITQTDPDVSPGTTNLDIIDLKFTDFGTYTCVASLKGGGISDISIDVNISSSTVPPNLTVPQEKSPLVTREGDTIELQCQVTGKPKPIILWSRADKEVAMPDGSMQMESYDGTLRIVNVSREMSGMYRCQTSQYNGFNVKPREALVQLIVQYPPAVEPAFLEIRQGQDRSVTMSCRVLRAYPIRVLTYEWRLGNKLLRTGQFDSQEYTEYAVKSLSNENYGVYNCSIINEAGAGRCSFLVTGKAYAPEFYYDTYNPVWQNRHRVYSYSLQWTQMNPDAVDRIVAYRLGIRQAGQQRWWEQEIKINGNIQKGELITYNLTELIKPEAYEVRLTPLTKFGEGDSTIRVIKYSAPVNPHLREFHCGFEDGNICLFTQDDTDNFDWTKQSTATRNTKYTPNTGPNADRSGSKEGFYMYIETSRPRLEGEKARLLSPVFSIAPKNPYGPTNTAYCFSFFYHMYGQHIGVLNVYLRLKGQTTIENPLWSSSGNKGQRWNEAHVNIYPITSFQLIFEGIRGPGIEGDIAIDDVSIAEGECAKQDLATKNSVDGAVGILVHIWLFPIIVLISILSPRR
modifications: full-length GFP tag in some constructs
notes: MAM domain containing glycosylphosphatidylinositol anchor 2; full-length human, recombinant or transfected
interaction between BDNF and TrkB upon overexpression (BDNF-TrkB interaction): attenuated the interaction between BDNF and TrkB
interaction with TrkB (BiFC) (TrkB (TrkB-VN)): could interact with full-length MDGA2
interaction of endogenous MDGA2 (Co-IP) (TrkB [1]; IP anti-MDGA2, Fig 3B): immunoprecipitated TrkB and NLGN1 but not mBDNF or ImBDNF
interaction of endogenous MDGA2 (Co-IP) (TrkB [1]; IP anti-TrkB, S3C Fig): specifically immunoprecipitated MDGA2 but not MDGA1
pAkt level normalized to total protein ([2]; replicate 1): 1.48 arbitrary units
pTrkB level normalized to total protein ([2]; replicate 1): 1.52 arbitrary units
pmTOR level normalized to total protein ([2]; replicate 1): 0.88 arbitrary units
pAkt level normalized to total protein ([2]; replicate 2): 1.42 arbitrary units
pTrkB level normalized to total protein ([2]; replicate 2): 1.19 arbitrary units
pmTOR level normalized to total protein ([2]; replicate 2): 1.02 arbitrary units
pAkt level normalized to total protein ([2]; replicate 3): 1.72 arbitrary units
pTrkB level normalized to total protein ([2]; replicate 3): 1.31 arbitrary units
pmTOR level normalized to total protein ([2]; replicate 3): 1.26 arbitrary units
pAkt level normalized to total protein ([2]; replicate 4): 1.9 arbitrary units
pTrkB level normalized to total protein ([2]; replicate 4): 1.16 arbitrary units
pmTOR level normalized to total protein ([2]; replicate 4): 1.35 arbitrary units
pAkt level normalized to total protein ([2]; replicate 5): 1.87 arbitrary units
pTrkB level normalized to total protein ([2]; replicate 5): 1.08 arbitrary units
pmTOR level normalized to total protein ([2]; replicate 5): 1.92 arbitrary units
pAkt level normalized to total protein ([2]; replicate 6): 1.07 arbitrary units
pTrkB level normalized to total protein ([2]; replicate 6): 1.03 arbitrary units
pmTOR level normalized to total protein ([2]; replicate 6): 1.41 arbitrary units
overactivation of TrkB signaling (pTrkB, pAkt, pmTOR) upon expression ([2]; Mdga2-/- neurons, Fig 3J, n = 6): could be reversed upon the expression of full-length MDGA2

B2: brain-derived neurotrophic factor (protein)
chain: APMKEVNVHGQGNLAYPGVRTHGTLESVNGPRAGSRGLTTTSLADTFEHVIEELLDEDQKVRPNEENHKDADLYTSRVMLSSQVPLEPPLLFLLEEYKNYLDAANMSMRVRRHSDPARRGELSVCDSISEWVTAADKKTAVDMSGGTVTVLEKVPVSKGQLKQYFYETKCNPMGYTKEGCRGIDKRHWNSQCRTTQSYVRALTMDSKKRIGWRFIRIDTSCVCTLTIKRGR
Phosphorylation of TrkB induced by BDNF (TrkB [3]): showed a dose-dependent manner and was much stronger in Mdga2^ +/− and Mdga2^−/− neurons than in WT neurons
repetitive self-grooming behavior and anxiety-like behavior (ASD animal models; overexpression of BDNF, neonatally isolated rats): rescued repetitive self-grooming behavior and anxiety-like behavior
social deficits (ASD animal models; valproic acid-exposed mice): attenuated social deficits in valproic acid-exposed mice
